Measured values as given in the supplement of paper PMC10567573.

B1: TSPAN10 (parent)
chain: EGCGPPLRRWLRANLAASGGYAIA

Variants of: B1
Assay: protein stability index of a GFP-peptide fusion (GPS, HEK-293T) (PSI 1-6); higher = more stable
Settings: c terminus: a fixed tail appended
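Note: lentivirally expressed fusions sorted by FACS into six bins by GFP to DsRed ratio, PSI derived from sequencing read proportions per bin multiplied by bin number.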

Going from R12H to R12K, the protein stability index rises from 2.47 to 2.92.

Going from R12S to R12W, the protein stability index rises from 2.58 to 3.67.

First: R12T
Second: R12N
The protein stability index of the first is higher: 1.82 for the first, 1.73 for the second.

First: R12Y
Second: G20W
The protein stability index of the first is higher: 2.84 for the first, 1.84 for the second.

Going from G20D to G20N, the protein stability index rises from 2.25 to 3.44.

First: G4K
Second: G4C
The protein stability index of the first is higher: 2.31 for the first, 1.32 for the second.

Going from G4Y to G4T, the protein stability index rises from 1.83 to 2.5.

First: G4S
Second: G4F
The protein stability index of the first is higher: 2.09 for the first, 1.27 for the second.

First: G4A
Second: G4N
The protein stability index of the first is lower: 1.54 for the first, 2.06 for the second.

Going from A16L to A16N, the protein stability index rises from 1.53 to 2.5.

Compared with A16V, A16S is higher in protein stability index: 1.65 for the first, 1.68 for the second.

Compared with A16M, A16G is lower in protein stability index: 2.98 for the first, 1.71 for the second.

Compared with A16Y, A16Q is higher in protein stability index: 1.48 for the first, 1.57 for the second.

Going from P6E to P6A, the protein stability index rises from 1.48 to 2.2.

Going from P6Q to P6S, the protein stability index falls from 1.89 to 1.72.

Going from P6L to P6G, the protein stability index rises from 1.03 to 1.86.

Going from P6W to P6N, the protein stability index rises from 1.5 to 2.29.

Compared with A24H, A24E is higher in protein stability index: 1.68 for the first, 2.92 for the second.

Compared with A24T, A24N is higher in protein stability index: 2 for the first, 2.27 for the second.

Going from A24M to A24S, the protein stability index rises from 1.93 to 1.98.

Going from A24D to A24F, the protein stability index falls from 2.42 to 1.48.

Compared with A24G, Y21R is higher in protein stability index: 1.65 for the first, 2.3 for the second.

First: Y21A
Second: Y21H
The protein stability index of the first is higher: 2.65 for the first, 2.39 for the second.

First: Y21F
Second: Y21L
The protein stability index of the first is lower: 1.85 for the first, 2.11 for the second.

First: Y21D
Second: Y21G
The protein stability index of the first is higher: 2.61 for the first, 2.11 for the second.

Compared with Y21N, A22H is lower in protein stability index: 2.61 for the first, 2.23 for the second.

Going from A22V to A22G, the protein stability index falls from 2.8 to 1.96.

First: A22I
Second: A22D
The protein stability index of the first is lower: 1.03 for the first, 2.46 for the second.

Compared with A22E, R9N is higher in protein stability index: 2.28 for the first, 2.72 for the second.

First: R9S
Second: R9I
The protein stability index of the first is lower: 2.33 for the first, 2.9 for the second.

First: R9W
Second: R9A
The protein stability index of the first is lower: 1 for the first, 1.55 for the second.

Compared with R9V, N14S is higher in protein stability index: 1.65 for the first, 1.93 for the second.

Compared with N14M, N14A is higher in protein stability index: 2.08 for the first, 2.3 for the second.

First: N14P
Second: N14W
The protein stability index of the first is higher: 2.06 for the first, 1.83 for the second.

Going from N14I to A13V, the protein stability index rises from 1.05 to 1.75.

Compared with A13C, A13M is lower in protein stability index: 2.93 for the first, 1.4 for the second.

Going from A13G to A13Y, the protein stability index falls from 3.35 to 1.66.

First: A13K
Second: G19Y
The protein stability index of the first is higher: 2.95 for the first, 1.93 for the second.

Going from G19Q to G19L, the protein stability index rises from 1.43 to 2.17.

Compared with G19P, G19M is lower in protein stability index: 2.13 for the first, 1.24 for the second.

Compared with G19N, G19F is lower in protein stability index: 2.13 for the first, 1.79 for the second.

Compared with G19I, G19D is higher in protein stability index: 1.93 for the first, 2.11 for the second.

Compared with G19S, I23W is lower in protein stability index: 2.58 for the first, 1.59 for the second.

First: I23V
Second: I23E
The protein stability index of the first is lower: 2.11 for the first, 2.34 for the second.

Going from I23D to I23Q, the protein stability index rises from 2.35 to 2.48.

Compared with I23H, L15D is higher in protein stability index: 1.96 for the first, 2.81 for the second.

Compared with L15N, L15Y is lower in protein stability index: 2.28 for the first, 1.92 for the second.

First: L15P
Second: L15R
The protein stability index of the first is lower: 2.14 for the first, 3.06 for the second.

First: L15E
Second: L15S
The protein stability index of the first is higher: 2.96 for the first, 2.94 for the second.

Going from L15Q to A17Y, the protein stability index falls from 3.2 to 1.97.

Compared with A17Q, A17E is lower in protein stability index: 2.79 for the first, 2.63 for the second.

Compared with A17D, A17G is lower in protein stability index: 2.71 for the first, 1.59 for the second.

Going from A17C to A17H, the protein stability index rises from 1.39 to 2.

Compared with A17I, P5V is lower in protein stability index: 2.67 for the first, 2.15 for the second.

Compared with P5R, P5Q is lower in protein stability index: 2.48 for the first, 1.79 for the second.

Compared with P5D, E1R is higher in protein stability index: 2.38 for the first, 2.57 for the second.

Going from E1T to E1W, the protein stability index rises from 1.39 to 2.07.

Going from L7D to L7S, the protein stability index falls from 2.33 to 2.29.

First: L7I
Second: L7F
The protein stability index of the first is lower: 1.39 for the first, 1.4 for the second.

First: L7Q
Second: L7E
The protein stability index of the first is lower: 1.36 for the first, 1.78 for the second.

First: L7Y
Second: L7N
The protein stability index of the first is lower: 2 for the first, 2.67 for the second.

Going from L7M to L7A, the protein stability index falls from 2.39 to 1.91.

Compared with C3I, C3D is lower in protein stability index: 2.83 for the first, 2.37 for the second.

Compared with C3L, C3A is lower in protein stability index: 2.65 for the first, 2.3 for the second.

First: C3K
Second: C3M
The protein stability index of the first is higher: 1.93 for the first, 1.78 for the second.

Going from C3G to R8N, the protein stability index falls from 2.11 to 1.83.

Compared with R8H, R8G is higher in protein stability index: 1.58 for the first, 1.71 for the second.

Going from R8F to R8K, the protein stability index rises from 1.3 to 1.85.

Compared with R8A, R8D is higher in protein stability index: 1.04 for the first, 1.47 for the second.

First: R8W
Second: S18L
The protein stability index of the first is lower: 1.31 for the first, 2.19 for the second.

First: S18D
Second: S18K
The protein stability index of the first is higher: 2.71 for the first, 1.61 for the second.

Going from S18W to S18A, the protein stability index falls from 2.06 to 1.97.

First: S18T
Second: W10P
The protein stability index of the first is lower: 2.34 for the first, 3.39 for the second.

Going from W10R to W10F, the protein stability index falls from 3.5 to 1.61.

Compared with W10N, W10D is higher in protein stability index: 2.55 for the first, 3.25 for the second.

Compared with W10A, W10H is lower in protein stability index: 3.63 for the first, 2.53 for the second.

Compared with W10C, G2P is lower in protein stability index: 2.03 for the first, 1.85 for the second.

Going from G2K to G2D, the protein stability index falls from 2.32 to 1.91.

Going from G2N to G2E, the protein stability index rises from 1 to 1.97.

First: G2W
Second: G2I
The protein stability index of the first is lower: 2 for the first, 2.15 for the second.

Compared with G2H, L11K is higher in protein stability index: 2.07 for the first, 2.43 for the second.

Going from L11Y to L11R, the protein stability index rises from 1.9 to 2.56.

First: L11A
Second: L11W
The protein stability index of the first is higher: 2.55 for the first, 1.5 for the second.

L11V gave a protein stability index of 1.82.
